In patent publication US20240109974A1 (SHANDONG SIMCERE BIOPHARMACEUTICAL, published 2024):

T1: human TNFR2 on the surface of CHO-TNFR2 cells (human, UniProt P20333 23-461)
T1 construct: whole, on cells
T1 sequence (looked up): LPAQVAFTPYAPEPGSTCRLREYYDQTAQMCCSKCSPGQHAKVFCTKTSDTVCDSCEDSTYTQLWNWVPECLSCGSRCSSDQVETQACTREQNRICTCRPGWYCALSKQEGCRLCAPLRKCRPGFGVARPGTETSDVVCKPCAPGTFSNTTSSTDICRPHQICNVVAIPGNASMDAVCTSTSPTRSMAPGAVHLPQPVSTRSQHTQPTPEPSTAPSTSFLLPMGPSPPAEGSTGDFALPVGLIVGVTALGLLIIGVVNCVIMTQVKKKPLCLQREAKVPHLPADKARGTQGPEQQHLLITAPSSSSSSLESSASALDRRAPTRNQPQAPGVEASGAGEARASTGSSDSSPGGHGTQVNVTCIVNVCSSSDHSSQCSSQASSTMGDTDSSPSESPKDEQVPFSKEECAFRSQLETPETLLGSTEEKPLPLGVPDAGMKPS

B1: 224-WT (antibody, V domains shown)
VH: EVQLQESGPEIVKPGASVKLSCTASGFNNKDIYMHWVKQRPEQGLEWIGRIDPATGNTKHDPKFQDKATLSSDTSSNTAYLQFSSLTSEDTAVYYCAHSPYGDFGAMDYWGQGTTVTVSS
VL: DIQMTQSPAIMSASLGERVTMTCTASSSVSSNYLHWYQQKPGSSPKLWIYSTSNLPSGVPARFSGSGSGTSYSLTISSMEAEDAATYYCHQYHRSPWTFGGGTKLEIK
notes: Human-murine chimeric wild-type molecule; also called human-murine chimeric antibody WT of #224
B2: 001-WT (antibody, V domains shown)
VH: EVQLQESGGGLVQPGGSLNLSCAASGFAFSTYDLSWVRQTPEKRLEWVAYINNGGISTYYSDTVKGRFTISRDNAKNTLYLQMSSLKSEDTAMYYCVRGPFYGSANYFDYWGQGTTVTVSS
VL: EIVMTQSPASLSLSVGETVTITCRTSESIYSNLPWYQQKQGKSPQLLVYDATKLAEGVPSRFSGSESGTQYSLKINSLQSEDFGTYYCQHFWVTPWTFGGGTKLEIK
notes: Human-murine chimeric wild-type molecule; also called human-murine chimeric antibody WT of #001
B3: 219-WT (antibody, V domains shown)
VH: EVQLQESGAELVRPGASVKLSCKASGYSFTNYWMNWVKQRPGQGLEWIGMIHPSDTETRLNQNFKDKATLTVDKSSSTSYMQLSSPTSEDSAVYYCARGEGLGAARSVSMDYWGQGTTVTVSS
VL: DILMTQSPSSLSASLGDRVTISCRASQDISNYLNWYQQKPDGTVKVLIYYTAILHSGVPSRFSGSGSGTDYSLTISNLEQEDIATYFCQQGNTLPWTFGGGTKLEIK
notes: Human-murine chimeric wild-type molecule

What follows are binders tested against T1, human TNFR2 on the surface of CHO-TNFR2 … (assay: flow cytometry on CHO-TNFR2 cells; AUC, reference itself).
Description: (§1) The transfected full-length plasmid of human TNFR2 was purchased from Sino Biological (Cat #HG10417-UT, NCBI Ref Seq: NM_001066.2). The experiment was conducted at a cell density within 80%. The cell medium was discarded; the cells were rinsed with PBS, and digested with 1 ml trypsin for 2 minutes; the digestion was stopped with a Ham's F12 complete medium containing 10% FBS, and then a cell suspension was made. The cell suspension was counted, and then an appropriate amount of cell suspension was centrifuged at 350×g; the supernatant was discarded; a corresponding volume of blocking solution (10% FBS+PBS) at a density of 1×10⁷ cells/ml was added to resuspend the cells, and the mixture was incubated at 4° C. for 30 minutes. After the incubation, the mixture was centrifuged at 350×g to remove the supernatant, and the cells were resuspended in a staining buffer (2% FBS+PBS) to a density of 2×10⁶ cells/ml, and spread onto a 96-well plate, with 50 μl of cell suspension added to each well for later use. The antibody was diluted with PBS for 10-fold gradient dilution from the highest concentration of 20 μg/m (twice the concentration); the diluted antibody was added to the well containing 50 μl of cell suspension, and placed on a microplate shaker for shaking at 500 rpm for 1 minute, so that the antibody was fully mixed with the cells; the mixture was incubated at 4° C. for 1 h. After the incubation, the cells were washed twice with the staining buffer, with 100 μl per well, and centrifuged at 350-g for 5 minutes, and the supernatant was discarded. […] After the staining, similarly, the cells were washed twice with the staining buffer; finally, the cells were resuspended in 200 μl of staining buffer; signals were detected by a flow cytometer (Thermo Attune NxT). […] The binding curve of an antibody was drawn with antibody concentration as the abscissa and corresponding mean fluorescence intensity (MFI) fold as the ordinate, and fitted with four parameters (GraphPad Prism9) to calculate the EC50 value.

% Relative activity (Test antibody/WT antibody), 100%:
B1
B2
B3

The binders below were run against T1, human TNFR2 on the surface of CHO-TNFR2 … (assay: flow cytometry on CHO-TNFR2 cells; EC50, reference itself).
Description: as §1

% Relative activity (WT antibody/test antibody), 100%:
B1
B2
B3
